Numbering of substitutions follows the chain as printed. Numbers in names are those of the source.
T1: wild type IFNAR2-EC (extracellular domain of human IFNAR2) (human, UniProt P48551 28-237)
T1 construct: Expressed in E. coli, non-glycosylated; also called wt; WT protein
T1 sequence: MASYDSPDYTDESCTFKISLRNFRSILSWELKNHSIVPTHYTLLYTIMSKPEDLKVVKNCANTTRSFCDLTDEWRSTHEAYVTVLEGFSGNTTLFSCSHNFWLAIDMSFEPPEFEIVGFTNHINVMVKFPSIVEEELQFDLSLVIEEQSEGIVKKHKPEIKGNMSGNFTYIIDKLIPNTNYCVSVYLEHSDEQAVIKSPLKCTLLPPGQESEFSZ

B1: IFNAR2 EC H78A/N100A mutant (receptor)
chain: T1 sequence with H78A, N100A
notes: also called R2 H78A/N100A; MIFNAR2 EC
B2: IFNAR2 EC H78A/N100D mutant (receptor)
chain: T1 sequence with H78A, N100D
B3: interferon beta (wild type, glycosylated, produced in CHO) (ligand, human, UniProt P01574 22-187, looked up)
chain: MSYNLLGFLQRSSNFQCQKLLWQLNGRLEYCLKDRMNFDIPEEIKQLQQFQKEDAALTIYEMLQNIFAIFRQDSSSTGWNETIVENLLANVYHQINHLKTVLEEKLEKEDFTRGKLMSSLHLKRYYGRILHYLKAKEYSHCAWTIVRVEILRNFYFINRLTGYLRN
modifications: glycosylated (site not stated)
notes: also called IFNβ; IFN-β

Assays:
[1] = biological target: B3; assay: RifS, IFNAR2-EC immobilised through antibodies
Procedure: (§1) All thermodynamic and kinetic data were obtained from label-free heterogeneous phase detection. […] This technique is similar to Biacore and is used to accurately measure affinity of binding between two proteins.
(§2) Association and dissociation kinetics were measured by standard injection protocols and corrected by blank runs. Dissociation rate constants were measured at IFN concentration in the range of 1-1000 nM in order to saturate the surface.

[2] = biological target: B3; assay: RifS, IFNAR2-EC immobilised through antibodies, 500 mM NaCl, pH 7.4
Procedure: as §1, §2

[3] = biological target: B3; assay: cell-based or functional assay
[4] = biological target: T1, wild type IFNAR2-EC (extracellular …); assay: RifS, IFNAR2-EC immobilised through antibodies, 500 mM NaCl, pH 7.4
Procedure: as §1, §2

B1 was tested, and the “fold higher affinity than wild type” value [1] was about 100 fold and the Kd [2] was about 0.03 nM.

B2 was tested, and the “IC50 (read off the curve)” value [3] was about 0.4 nM.

B3 was tested, and the Kd [4] was about 3 nM.

— patent publication US20050164185A1 (YEDA RESEARCH AND DEVELOPMENT CO LTD AT WEIZMANN INSTITUTE …, published 2005)
